Measured values published in paper PMC6889386.

Molecular target: EGFR on A549-derived exosomes (A-Exo) (UniProt P00533)
Test: flow cytometry
Settings: MSN-aptamer conjugates incubated with PKH67-labelled exosomes in cell medium or rat blood (37 C, 1-4 h, static or 100 rpm), buffer details not given

Sequence | binding signal (% positive events) (amino-functionalized (terminus not stated), EDC/NHS-conjugated to MSN-COOH nanoparticle) | binding signal (% positive events) (carboxyl-functionalized (terminus not stated), EDC/NHS-conjugated to MSN-NH2 nanoparticle)
TACCAGTGCGATGCTCAGTGCCGTTTCTTCTCTTTCGCTTTTTTTGCTTTTGAGCATGCTGACGCATTCGGTTGAC [anti-EGFR DNA aptamer on negatively charged MSN (MSN-AP-)] | 8.1 | 
TACCAGTGCGATGCTCAGTGCCGTTTCTTCTCTTTCGCTTTTTTTGCTTTTGAGCATGCTGACGCATTCGGTTGAC [anti-EGFR DNA aptamer on positively charged MSN (MSN-AP)] |  | 26.6
